Test: Enzyme activity measurement with NGA2-Asn-Fmoc by HPLC (specific activity, Km, Vmax)
Format: biochemical
Conditions: for Specific activity: 1 mM NGA2-Asn-Fmoc as substrate
Protocol: The enzyme activity was measured as follows. A reaction solution (total volume: 10 μl) containing 100 mM of a sodium acetate buffer (pH 5.3) at the final concentration, 0.5 M NaCl, 10 μM of a Fmoc-labeled biantennary complex type sugar chain (NGA2-Asn-Fmoc), […], and heated at 95° C. for 5 minutes, thereby stopping the enzyme reaction. The reaction solution was subjected to HPLC, and the enzymatic activity was calculated from the peak area ratio between the NGA2-Asn-Fmoc as the substrate and its hydrolysate. The column was Asahipak NH2P-50 4E (4.6.250 mm, Shodex), and the solvents were acetonitrile (solvent A) and 200 mM of TEAA (pH 7.0, GLEN RESEARCH: solvent B). Isocratic elution was carried out at a flow rate of 1.0 ml/min, and the solvent B: 43%, and detection was carried out using a fluorescence detector (excitation wavelength 265 nm, and fluorescence wavelength 315 nm). The activity hydrolyzing […] of NGA2-Asn-Fmoc in 1 minute under the above-described reaction conditions was defined as 1 Unit of the enzymatic activity of Endo-Om.
The properties of Endo-Om were studied using a purified enzyme solution. According to the method described in Example 4, the Endo-Om crude enzyme solution prepared from 100 ml culture was substituted with an equilibration buffer (20 mM sodium phosphate buffer (pH 7.4), 0.5 M NaCl, 0.5 mM PMSF, 50 mM imidazole) by dialysis. The Endo-Om crude enzyme solution after dialysis was subjected to a HisTrap HP column (GE Healthcare), washed with the equilibration buffer, and eluted stepwise by an equilibration buffer containing 50 mM, 100 mM, and 200 mM of imidazole, thereby eluting the protein. The fraction containing Endo-Om eluted from the column was subjected to ultrafiltration concentration using Amicon Ultra (50,000 NMWL, Millipore), further dialyzed with 20 mM of sodium phosphate buffer (pH 7.4) and 0.5 M of NaCl, and glycerol was added to make the final concentration 10%, thereby making an Endo-Om purified enzyme solution. According to the method described in Example 4, the activity of the Endo-Om purified enzyme solution when the substrate concentration was 1 mM was measured, and the specific activity was calculated. In addition, activity measurement was carried out using NGA2-Asn-Fmoc at different concentrations as the substrates, and Km and Vmax were calculated. For comparison, the specific activity, Km, and Vmax of the commercially available Endo-M were calculated by the same method. The optimal pH of Endo-M is 6.0 (Non Patent Literature 6), so that the pH of the sodium acetate buffer was made 6.0 when measuring the activity of Endo-M.
The enzyme activity was measured as follows. A reaction solution (total volume: 10 μl) containing 100 mM of a sodium acetate buffer (pH 5.3) at the final concentration, 0.5 M NaCl, 10 μM of a Fmoc-labeled biantennary complex type sugar chain (NGA2-Asn-Fmoc), and Endo-Cp was incubated at 30° C. for 3 hours, and heated at 95° C. for 5 minutes, thereby stopping the enzyme reaction. The reaction solution was subjected to HPLC, and the enzymatic activity was calculated from the peak area ratio between the NGA2-Asn-Fmoc as the substrate and its hydrolysate. […] Isocratic elution was carried out at a flow rate of 1.0 ml/min, and the solvent B: 43%, and detection was carried out using a fluorescence detector (excitation wavelength 265 nm, and fluorescence wavelength 315 nm). […]
The enzyme activity was measured as follows. […]

Molecule | Specific activity of partially purified enzyme solution (10 μM NGA2-Asn-Fmoc as substrate, pH 5.3, 30° C.) | Specific activity (purified Endo-Om) | Specific activity (purified Endo-Om (pH 5.3), commercially available Endo-M (pH 6.0)) | Km relative to the Km of Endo-M (NGA2-Asn-Fmoc) | Vmax relative to the Vmax of Endo-M (NGA2-Asn-Fmoc)
Endo-Cp: endo-β-N-acetylglucosaminidase from Candida parapolymorpha DL-1 ATCC26012, amino acid sequence SEQ ID NO. 5, 745 amino acids (protein, listed as Candida parapolymorpha) MPRNTAKHSSLPQTNLPLSSLESSFFDSLDELANWERRIHEKSFELDELNKPTEKLAHYTRARQQSTSEDVKLLVCHDLKGGYQVNEDEDPLGYFPHPDGQHYFLQYPQLVDKFVYFSHHRVSIPPVSWINVCHRNAIKCLGTVIFEGNTYRDFEEADKLLTKQDGEYVFVRCLVALVEYFQFDGYLFNIETRFSNTRIASLLEPFLEQLRAELHVRNPSTELIWYDSYIYPENRVLYKNGVTEANYNFFSCCDSFFTNYWWNVKHLQDNIKNVGVLGSRLKVYAGYDVWGRGTMIGKGGYDSALACQMIKKYRSNVALFAPAWTYEYLARKDFTQNDTRFWIGLFDGESSMATTFKPYSSPLYKINDSNFVFYTNFGSGEGCAFYECGEKVYRDNWVNGSLQMEIPYAIHTRNKNGIQWTLSKEDSFHGGSCVEIKYNEVVDDKGYQVFNNQTINSFSLFSFVQDCSFPTVNVKLTYKLNHKTKSFFKLKIGYYIERRYRTVQKVRSGCLVVPLLSTNDQWFTIEEPFHVSLQNSHEFIVLDSATIFYEETEDPFMRAHVVEDQSTSSVIDNEEYEKLMNSEIYFDDEDEDWILVPSDISMESTDNGGRENHTWKVISNQIRKKHPKSHPSTSPVLKLGELAIINANDYPSDSFFKLMPVNSIDVRRWEGKILLIWKTNQDSVLYHLIFVDDVFQGISLVSKFVFEDQAVDEKSFKTKSGGSTKVRIDTVNRLGILVKGTDM | 120 μUnit/mg | – | – | – | –
Endo-Om: endo-β-N-acetylglucosaminidase from methylotrophic yeast Ogataea minuta IFO10746, amino acid sequence SEQ ID NO. 1, 772 amino acids (protein, listed as Ogataea minuta) MAQSQLLGGAVRPVFFDKLEELRRWHTQSANLSRESELDSLNVATEPFSSYERAQTGSGSRSSEPVPGDKEDPPIKLMVCHDFKGGYQDYEDAQPLGYFPHPTGSRYFLQYPQLIDQFVYFSHHRVTVPPVNWINFCHRNGIKCFGTVIFEGNASKDFEELDRLVSRDEKGDFVFVDALIKLAAHYGFDGYLLNIETTFSNTKIAADLEPFAEQLKSGLHCLDSKNELIWYDSYVFPANKVSYTNGVTESNYNFFSLSDAFFSNYWWNIKNLQENIKNVGVLGVQKKIYVGYDVWGRGTLVGKGGFDSSLACKMIAKFKSNVALFAPAWTYESLGPKDFNQNDARFWIGLFENESSISSTVPPHSSAVYKINESSFIFYTNFSSGEGNRFFSKGSEVYRKNWVNGSLQFDLPIDLHRKDKNGLQWALDKSDAFHGGACLEIKYSEIKDENGYQIFNNQMVSDFTLFNFTKECHFPTVNVKVTYKLNHKTKSTFKIKIKYIIERRFRSVQTVRTGYLTIPLLSTSGKWFTVEESFQINLQTSHEYIVLESAHVTYDEDRSADSFFRSYIVEDSAITSVIDNEEYEKLINSEIYNDDEDEDWILVPSDVSISSSESQSNDSKTQYLGRKLFGNKSTPKTRTLEGTAPLLRIGEFAIISANNYPSSNFLAVTSVKSIESSRLEGDSLVLLNWQVGEGHQKGVCYYIIYVNGAVVGLSVAPKFIYQDTELASENSASARSNYKKSGLGSSSDRKSKVRVDSVDKLGNVFTGSEVWV | – | 0.8 µmol/min/mg | 0.80 µmol/min/mg | 31 times | 55 times
